{
  "source": "patent US20040077522A1",
  "about": "(published 2004)",
  "proteins": {"B1": {"name": "Deinococcus radiodurans LuxS (enzyme)", "chain": "MPDMANVESFDLDHTKVKAPYVRLAGVKTTPKGDQISKYDLRFLQPNQGAIDPAAIHTLEHLLAGYMRDHLEGVVDVSPMGCRTGMYMAVIGEPDEQGVMKAFEAALKDTAGHDQPIPGVSELECGNYRDHDLAAARQHARDVLDQGLKVQETILLERGSHHHHHH", "modifications": "selenomethionine in place of methionine (SeMet protein used for the crystals)", "notes": "Open reading frame amplified from D. radiodurans ATCC 13939D genomic DNA and expressed in E. coli with 8 added C-terminal residues; The same protein gave several crystal forms: P21 has a non-crystallographic dimer in the asymmetric unit, and C2 has a crystallographic dimer; also called D. radiodurans LuxS; Deinococcus radiodurans wtLuxS"}, "B2": {"name": "Haemophilus influenzae LuxS (enzyme)", "chain": "MPLLDSFKVDHTKMNAPAVRIAKTMLTPKGDNITVFDLRFCIPNKEILSPKGIHTLEHLFAGFMRDHLNGDSIEIIDISPMGCRTGFYMSLIGTPNEQKVSEAWLASMQDVLGVQDQASIPELNIYQCGSYTEHSLEDAHEIAKNVIARGIGVNKNEDLSLDNSLLKGSHHHHHH", "modifications": "selenomethionine in place of methionine (SeMet protein used for the crystals)", "notes": "Open reading frame amplified from H. influenzae ATCC 51907D genomic DNA and expressed in E. coli with 8 added C-terminal residues; Homodimer in the crystal (two molecules in the asymmetric unit); also called H. influenzae LuxS; Haemophilus influenzae wtLuxS"}, "B3": {"name": "Helicobacter pylori LuxS (enzyme)", "chain": "MKMNVESFNLDHTKVKAPYVRIADRKKGVNGDLIVKYDVRFKQPNRDHMDMPSLHSLEHLVAEIIRNHANYVVDWSPMGCQTGFYLTVLNHDNYTEILEVLEKTMQDVLKAKEVPASNEKQCGWAANHTLEGAQNLARAFLDKRAEWSEVGVGSHHHHHH", "modifications": "selenomethionine in place of methionine (SeMet protein used for the crystals)", "notes": "Open reading frame amplified from H. pylori ATCC 43504D genomic DNA and expressed in E. coli with 8 added C-terminal residues; Homodimer in the crystal (two molecules, A and B, in the asymmetric unit); also called H. pylori LuxS; Helicobacter pylori wtLuxS"}},
  "data": [
    {"target": "the molecule itself", "test": "X-ray crystal structure, homodimer interface", "units": {"surface area buried through the dimer interaction": "Å^2"}, "values": [
      {"protein": "B1", "surface area buried through the dimer interaction": 3930},
      {"protein": "B2", "surface area buried through the dimer interaction": 4160},
      {"protein": "B3", "surface area buried through the dimer interaction": 4180}
    ]}
  ]
}
